# B1: CYP2E1 (Rattus norvegicus) (protein)
# chain: MAVLGITIALLVWVATLLVISIWKQIYNSWNLPPGPFPLPILGNIFQLDLKDIPKSFTKLAKRFGPVFTLHLGSRRIVVLHGYKAVKEVLLNHKNEFSGRGDIPVFQEYKNKGIIFNNGPTWKDVRRFSLSILRDWGMGKQGNEARIQREAQFLVEELKKTKGQPFDPTFLIGCAPCNVIADILFNKRFDYNDKKCLRLMSLFNENFYLLSTPWIQLYNNFADYLRYLPGSHRKIMKNVSEIKQYTLEKAKEHLQSLDINCARDVTDCLLIEMEKEKHSQEPMYTMENVSVTLADLFFAGTETTSTTLRYGLLILMKYPEIEEKLHEEIDRVIGPSRVPAVRDRLDMPYMDAVVHEIQRFINLVPSNLPHEATRDTVFQGYVIPKGTVVIPTLDSLLYDSHEFPDPEKFKPEHFLNENGKFKYSDYFKAFSAGKRVCVGEGLARMELFLLLSAILQHFNLKSLVDPKDIDLSPVTVGFGSIPPQFKLCVIPRS
# Substrate: O=[N+]([O-])c1ccc(O)cc1
# Assay: cells, lysate or membranes named
# Details: other: Lineweaver-Burk plot; rat liver microsomes; pH 7.4
# Protocol: The rats were fasted for 12 h with free access to water and then sacrificed by cervical dislocation. The liver was removed promptly and washed with ice-cold physiological saline solution to yellowish brown. […] The liver homogenate solution was centrifuged at 4 °C for 20 min at 12,000 r·min^−1 and supernatant fraction was reserved. The supernatant per millilitre was added with 0.1 mL CaCl2 (88 mM), gently shaken and kept at 0 to 4 °C for 5 min. The mixed solution was transferred to centrifuge tubes and centrifuged at 4 °C for 30 min at 15,000 r·min^−1. […] Protein concentration of the microsomes was determined by the method of Bradford. […]
# The apparent Km (Michaelis constant) value was calculated according to the Michaelis-Menten equation and Lineweaver-Burk plot.
# Group 1 (normal control) was added with phosphate buffer, group 2 (flavonoids reagent group) were added with flavonoids, and group 3 was given clomethiazole as positive control. […] The concentrations of probe substrate metabolites were calculated from the standard curves. The percentage of inhibition was calculated using the formula: %Inhibition = ((A0 − A1)/A0) × 100%, in which A0 was the concentration of probe substrate metabolite of group 1 and A1 was the concentration of probe substrate metabolite of group 2 and 3. The IC50 values were calculated based on the concentration-effect linear regression curve.
protein,measurement,value
B1,Km,90.92 µM
